Residue numbers refer to the chain shown, from its start.
Legend:
[1] = tested on: TuAlaRS (Tupanvirus (of Acanthamoeba castellanii)); test: EMSA; conditions: none (in vitro transcript)
EcAlaRS [2] = molecular target: T1, EcAlaRS (Escherichia coli, UniProt P00957 1-876); test: EMSA; 5 mM Mg2+; hardly affected vs WT; EMSA: 20 mM HEPES pH 7.5, 20 mM KCl, 5 mM MgCl2, 2 mM DTT, 0.1 µM RNA, 10 min on ice, protein 0.0625-32 µM; 5% native PAGE, 0.5x TBE, 4 °C; conditions: protein: recombinant; label: 5'-32P; tRNA cloverleaf
T1 sequence: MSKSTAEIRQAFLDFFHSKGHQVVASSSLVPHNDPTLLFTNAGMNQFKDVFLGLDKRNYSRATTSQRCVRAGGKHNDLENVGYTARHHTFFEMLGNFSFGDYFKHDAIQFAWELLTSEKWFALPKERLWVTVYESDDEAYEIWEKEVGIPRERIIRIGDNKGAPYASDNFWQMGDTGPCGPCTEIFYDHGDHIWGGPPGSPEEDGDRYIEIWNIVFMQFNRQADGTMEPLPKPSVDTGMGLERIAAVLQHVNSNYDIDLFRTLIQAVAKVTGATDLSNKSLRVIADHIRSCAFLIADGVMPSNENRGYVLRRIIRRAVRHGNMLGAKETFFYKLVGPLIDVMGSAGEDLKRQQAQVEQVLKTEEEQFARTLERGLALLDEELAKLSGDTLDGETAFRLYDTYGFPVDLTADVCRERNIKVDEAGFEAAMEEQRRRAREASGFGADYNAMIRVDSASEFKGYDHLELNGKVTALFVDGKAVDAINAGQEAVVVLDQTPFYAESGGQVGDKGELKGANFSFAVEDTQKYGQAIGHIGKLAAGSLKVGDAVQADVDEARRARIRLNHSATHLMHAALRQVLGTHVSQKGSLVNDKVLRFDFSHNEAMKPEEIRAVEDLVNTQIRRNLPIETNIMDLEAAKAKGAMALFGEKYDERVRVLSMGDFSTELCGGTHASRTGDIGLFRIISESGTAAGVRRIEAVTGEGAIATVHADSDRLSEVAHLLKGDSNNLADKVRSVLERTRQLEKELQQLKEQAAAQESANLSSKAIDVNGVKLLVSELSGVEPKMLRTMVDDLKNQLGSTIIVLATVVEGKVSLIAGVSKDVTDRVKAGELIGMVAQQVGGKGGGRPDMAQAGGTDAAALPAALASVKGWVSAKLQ

EcAlaRS [3] = molecular target: T1, EcAlaRS; test: EMSA; 5 mM Mg2+; EMSA: 20 mM HEPES pH 7.5, 20 mM KCl, 5 mM MgCl2, 2 mM DTT, 0.1 µM RNA, 10 min on ice, protein 0.0625-32 µM; 5% native PAGE, 0.5x TBE, 4 °C; conditions: protein: recombinant; label: 5'-32P; tRNA cloverleaf

## GGGGCUAUAGCUUCUAGCCCCACCA [Ec-microAla G3:C70]
[1]
  Kd fold increase vs WT (fold increase in Kd vs WT): 3

## GGGAUUUUAGCUUCUAAUUCUACCA [Ce-microAla]
[1]
  Kd: 400 nM

## GGGGCUAUAGCUUCUAGCUCCACCA [Ec-microAla]
[1]
  Kd: 300 nM

## GGGGCUAUAGCUCAGCUGGGAGAGCGCCUGCUUUGCAAGCAGGAGGUCUGCGGUUCGAUCCCGCAUAGCUCCACCA [EctRNAAla]
[1]
  Kd: 300 nM

## GGAGCUAUAGCUUCUAGCUCCACCA [Ec-microAla A3:U70]
[1]
  Kd fold increase vs WT (fold increase in Kd vs WT): 3

B1: EctRNAAla delCCA (structured_RNA)
RNA: GGGGCUAUAGCUCAGCUGGGAGAGCGCCUGCUUUGCAAGCAGGAGGUCUGCGGUUCGAUCCCGCAUAGCUCCA
modifications: none (in vitro transcript)
EcAlaRS [2]
  binding result: binds

B2: EctRNAAla CCA to UUG (structured_RNA)
RNA: GGGGCUAUAGCUCAGCUGGGAGAGCGCCUGCUUUGCAAGCAGGAGGUCUGCGGUUCGAUCCCGCAUAGCUCCAUUG
modifications: none (in vitro transcript)
EcAlaRS [2]
  binding result: binds

B3: EctRNAAla (structured_RNA)
RNA: B2 RNA with U74C, U75C, G76A
modifications: none (in vitro transcript)
EcAlaRS [3]
  Kd: 1000 nM

— publication PMC10036535, “A naturally occurring mini-alanyl-tRNA synthetase”
